Experimental data taken from PMC4575908.

System: O=C(O)[C@H]1O[C@@H](Oc2ccc([N+](=O)[O-])cc2)[C@H](O)[C@@H](O)[C@@H]1O
Assay: purified protein, by the assay type
Settings: 37.0 °C

Substance | Km [µM] | kcat [s⁻¹] | kcat/Km [M⁻¹ s⁻¹]
BfGUS (Bacteroides fragilis NCTC 9343) | 1900 ± 300 | 18 ± 1 | 9500
CpGUS (Clostridium perfringens str. 13) | 1100 ± 200 | 2.6 ± 0.6 | 2400
